From US20210107998A1 (Boehringer Ingelheim, published 2021) come the findings set out here.

Test in all cases: cell-based or functional assay
In experiment [1] the target is T1, Recombinant human BAFF trimer (Boehringer Ingelheim Pharmaceuticals, Inc.) (human, UniProt Q9Y275 134-285, limits assumed).
Experiment [2] deals with Recombinant cynomolgus BAFF trimer (Boehringer Ingelheim Pharmaceuticals, Inc.) (cynomolgus, UniProt A0A2K5V2X4 134-285).
Experiment [3] has as its target T1, Recombinant human BAFF trimer …. The source holds these as a separate data set.
The target of experiment [4] is Recombinant human BAFF 60mer (Boehringer Ingelheim Pharmaceuticals, Inc.) (human, UniProt Q9Y275 134-285, limits assumed).
Experiment [5] deals with membrane-bound human BAFF on fixed CHO-K1 cells (human, UniProt Q9Y275 1-285).

B1: Control Antibody 1 (anti-BAFF monoclonal antibody) (BAFF (1)) (antibody, V domains shown)
VH: QVQLQQSGAEVKKPGSSVRVSCKASGGTFNNNAINWVRQAPGQGLEWMGGIIPMFGTAKYSQNFQGRVAITADESTGTASMELSSLRSEDTAVYYCARSRDLLLFPHHALSPWGRGTMVTVSS
VL: SSELTQDPAVSVALGQTVRVTCQGDSLRSYYASWYQQKPGQAPVLVIYGKNNRPSGIPDRFSGSSSGNTASLTITGAQAEDEADYYCSSRDSSGNHWVFGGGTELTVL
With B1, in experiment [1], the “IC50, NFkB luciferase reporter, human BAFFR-CHO cells” value was 0.232 nM and the “IC90, NFkB luciferase reporter, human BAFFR-CHO cells” value is 0.743 nM. In experiment [2], the “IC50 Geomean, NFkB luciferase reporter, human BAFFR-CHO cells” value turned out to be 0.288 nM and the “IC90 Geomean, NFkB luciferase reporter, human BAFFR-CHO cells” value is 0.635 nM. For the same molecule, in experiment [3], the “IC50 Geomean, NFkB luciferase reporter, human TACI-CHO cells” value was 0.273 nM and the “IC90 Geomean, NFkB luciferase reporter, human TACI-CHO cells” value was found to be 0.576 nM. In addition, in experiment [4], the “IC50, NFkB luciferase reporter, human BAFFR-CHO cells” value amounted to 24.1 nM and the “IC90, NFkB luciferase reporter, human BAFFR-CHO cells” value stood at 180 nM. For the same molecule, in experiment [5], the “IC50, NFkB luciferase reporter, human BAFFR-CHO cells stimulated with fixed human BAFF CHO-K1 cells” value was determined as 0.553 nM and the “IC90, NFkB luciferase reporter, human BAFFR-CHO cells stimulated with fixed human BAFF CHO-K1 cells” value is 10.1 nM.

B2: Compound X (bispecific antibody, human IgG4 S228P, kappa)
chain 1: SSELTQDPAVSVALGQTVRVTCQGDSLRSYYASWYQQKPGQAPVLVIYGKNNRPSGIPDRFSGSSSGNTASLTITGAQAEDEADYYCSSRDSSGNHWVFGGGTELTVLGGGSGGGGQVQLVQSGAEVKKPGSSVKVSCKASGYTFTDQTIHWMRQAPGQGLEWIGYIYPRDDSPKYNENFKGKVTITADKSTSTAYMELSSLRSEDTAVYYCAIPDRSGYAWFIYWGQGTLVTVSSLGGGSGASTKGPSVFPLAPCSRSTSESTAALGCLVKDYFPEPVTVSWNSGALTSGVHTFPAVLQSSGLYSLSSVVTVPSSSLGTKTYTCNVDHKPSNTKVDKRVESKYGPPCPPCPAPEFLGGPSVFLFPPKPKDTLYITREPEVTCVVVDVSQEDPEVQFNWYVDGVEVHNAKTKPREEQFNSTYRVVSVLTVLHQDWLNGKEYKCKVSNKGLPSSIEKTISKAKGQPREPQVYTLPPSQEEMTKNQVSLTCLVKGFYPSDIAVEWESNGQPENNYKTTPPVLDSDGSFFLYSRLTVDKSRWQEGNVFSCSVMHEALHNHYTQKSLSLSLG
chain 2: DIQMTQSPSSLSASVGDRVTITCKASRDVAIAVAWYQQKPGKVPKLLIYWASTRHTGVPSRFSGSGSRTDFTLTISSLQPEDVADYFCHQYSSYPFTFGSGTKLEIKGGGSGGGGQVQLQQSGAEVKKPGSSVRVSCKASGGTFNNNAINWVRQAPGQGLEWMGGIIPMFGTAKYSQNFQGRVAITADESTGTASMELSSLRSEDTAVYYCARSRDLLLFPHHALSPWGRGTMVTVSSLGGGSGRTVAAPSVFIFPPSDEQLKSGTASVVCLLNNFYPREAKVQWKVDNALQSGNSQESVTEQDSKDSTYSLSSTLTLSKADYEKHKVYACEVTHQGLSSPVTKSFNRGEC
Regarding B2, in experiment [1], the “IC50, NFkB luciferase reporter, human BAFFR-CHO cells” value turned out to be 0.106 nM and the “IC90, NFkB luciferase reporter, human BAFFR-CHO cells” value worked out at 0.361 nM. In experiment [4], the “IC50, NFkB luciferase reporter, human BAFFR-CHO cells” value turned out to be 1.55 nM and the “IC90, NFkB luciferase reporter, human BAFFR-CHO cells” value is 6.84 nM.
